Kd data for one molecule are collected here from article doi:10.1101/293738 (bioRxiv, 2018).

This experiment concerns the target T1, LonS674A labelled with Atto-488 (LonS674A*) (Caulobacter crescentus, UniProt P0CAW0 1-799, S674A, Atto-488 on lysine residues (NHS ester)).
T1 sequence (looked up): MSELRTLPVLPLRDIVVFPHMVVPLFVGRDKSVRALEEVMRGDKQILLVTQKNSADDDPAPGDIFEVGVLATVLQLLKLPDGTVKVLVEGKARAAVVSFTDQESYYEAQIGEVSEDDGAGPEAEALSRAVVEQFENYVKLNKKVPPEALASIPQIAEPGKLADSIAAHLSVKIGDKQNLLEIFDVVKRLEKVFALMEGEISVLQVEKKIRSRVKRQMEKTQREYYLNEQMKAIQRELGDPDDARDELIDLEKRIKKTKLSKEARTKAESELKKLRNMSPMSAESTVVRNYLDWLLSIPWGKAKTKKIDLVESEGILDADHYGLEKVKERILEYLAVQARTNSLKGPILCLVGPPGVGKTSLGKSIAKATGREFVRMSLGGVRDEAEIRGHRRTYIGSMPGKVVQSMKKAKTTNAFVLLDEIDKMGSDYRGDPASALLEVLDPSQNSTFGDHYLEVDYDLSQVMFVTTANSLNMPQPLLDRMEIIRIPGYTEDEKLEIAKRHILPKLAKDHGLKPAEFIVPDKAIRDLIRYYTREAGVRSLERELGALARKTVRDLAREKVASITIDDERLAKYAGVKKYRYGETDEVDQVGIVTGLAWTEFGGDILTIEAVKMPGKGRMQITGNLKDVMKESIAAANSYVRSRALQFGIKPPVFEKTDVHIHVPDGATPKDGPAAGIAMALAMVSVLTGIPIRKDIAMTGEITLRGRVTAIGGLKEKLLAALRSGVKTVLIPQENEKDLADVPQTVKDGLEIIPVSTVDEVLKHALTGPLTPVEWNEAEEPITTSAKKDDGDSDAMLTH
As to the kind of experiment: MST.

B1: CcrM DNA methyltransferase (purified recombinant) (enzyme, Caulobacter crescentus, UniProt P0CAW2 1-358, looked up)
chain: MKFGPETIIHGDCIEQMNALPEKSVDLIFADPPYNLQLGGDLLRPDNSKVDAVDDHWDQFESFAAYDKFTREWLKAARRVLKDDGAIWVIGSYHNIFRVGVAVQDLGFWILNDIVWRKSNPMPNFKGTRFANAHETLIWASKSQNAKRYTFNYDALKMANDEVQMRSDWTIPLCTGEERIKGADGQKAHPTQKPEALLYRVILSTTKPGDVILDPFFGVGTTGAAAKRLGRKFIGIEREAEYLEHAKARIAKVVPIAPEDLDVMGSKRAEPRVPFGTIVEAGLLSPGDTLYCSKGTHVAKVRPDGSITVGDLSGSIHKIGALVQSAPACNGWTYWHFKTDAGLAPIDVLRAQVRAGMN
One may read the Kd as the equilibrium constant for the complex coming apart. On to B1, for which the Kd was found to be 1180 ± 85 nM.
